Legend:
[1] = test system: AncSZ; test: phosphorylation enrichment, bacterial display (enrichment ratio); higher = better substrate or ligand; peptides without Tyr show the background
[2] = target: EPHB1 (UniProt P54762); test: as above
[3] = target: EPHB2 (UniProt P29323); test: as above
[4] = target: FGFR1 (UniProt P11362); test: as above
[5] = target: FGFR3 (UniProt P22607); test: as above
[6] = test system: Fer (mouse); test: as above
[7] = target: Fes (UniProt P07332); test: as above
[8] = target: Fyn (UniProt P06241); test: as above
[9] = target: Hck (UniProt P08631); test: as above
[10] = target: Jak2 (UniProt O60674); test: as above
[11] = target: MERTK (UniProt Q12866); test: as above
[12] = test system: c-Abl (mouse); test: as above
[13] = test system: c-Src; test: as above
[14] = target: Grb2 SH2 (UniProt P62993); test: SH2 binding enrichment of the phosphorylated peptide, bacterial display (enrichment ratio); higher = better substrate or ligand; peptides without Tyr show the background
[15] = target: SHP2-C SH2; test: as above
[16] = target: c-Src SH2; test: as above
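Wherever SH2 binding enrichment of the phosphorylated peptide, bacterial display is given: peptide library displayed on the E. coli surface as eCPX fusions, selected cells deep-sequenced, score is each peptide's frequency after selection divided by its frequency in the input.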
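Wherever phosphorylation enrichment, bacterial display is given: 11-residue human phosphosite peptides and single-mutation variants displayed on the E. coli surface, counted by deep sequencing, each peptide's frequency after selection divided by its frequency in the unselected input library; frequency after pTyr selection over input frequency; kinase dosed for 20-30% of maximal phosphorylation in three min.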

Chain of Fyn (P06241 whole entry, looked up): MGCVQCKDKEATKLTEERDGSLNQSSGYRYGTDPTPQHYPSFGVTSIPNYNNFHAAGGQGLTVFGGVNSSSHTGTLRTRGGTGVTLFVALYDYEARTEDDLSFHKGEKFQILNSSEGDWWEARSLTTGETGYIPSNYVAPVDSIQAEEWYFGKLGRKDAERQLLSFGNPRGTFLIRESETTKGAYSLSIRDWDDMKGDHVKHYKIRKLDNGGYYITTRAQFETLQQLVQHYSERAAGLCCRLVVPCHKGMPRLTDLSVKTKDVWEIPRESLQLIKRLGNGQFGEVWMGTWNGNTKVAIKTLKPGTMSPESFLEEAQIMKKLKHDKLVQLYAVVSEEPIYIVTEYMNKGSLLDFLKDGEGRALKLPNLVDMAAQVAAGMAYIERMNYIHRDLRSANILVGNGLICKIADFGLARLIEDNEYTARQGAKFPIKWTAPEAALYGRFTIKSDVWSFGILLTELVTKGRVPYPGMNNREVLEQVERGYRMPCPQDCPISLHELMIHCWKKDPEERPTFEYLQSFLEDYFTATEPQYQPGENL
Chain of EPHB1 (P54762 whole entry, looked up): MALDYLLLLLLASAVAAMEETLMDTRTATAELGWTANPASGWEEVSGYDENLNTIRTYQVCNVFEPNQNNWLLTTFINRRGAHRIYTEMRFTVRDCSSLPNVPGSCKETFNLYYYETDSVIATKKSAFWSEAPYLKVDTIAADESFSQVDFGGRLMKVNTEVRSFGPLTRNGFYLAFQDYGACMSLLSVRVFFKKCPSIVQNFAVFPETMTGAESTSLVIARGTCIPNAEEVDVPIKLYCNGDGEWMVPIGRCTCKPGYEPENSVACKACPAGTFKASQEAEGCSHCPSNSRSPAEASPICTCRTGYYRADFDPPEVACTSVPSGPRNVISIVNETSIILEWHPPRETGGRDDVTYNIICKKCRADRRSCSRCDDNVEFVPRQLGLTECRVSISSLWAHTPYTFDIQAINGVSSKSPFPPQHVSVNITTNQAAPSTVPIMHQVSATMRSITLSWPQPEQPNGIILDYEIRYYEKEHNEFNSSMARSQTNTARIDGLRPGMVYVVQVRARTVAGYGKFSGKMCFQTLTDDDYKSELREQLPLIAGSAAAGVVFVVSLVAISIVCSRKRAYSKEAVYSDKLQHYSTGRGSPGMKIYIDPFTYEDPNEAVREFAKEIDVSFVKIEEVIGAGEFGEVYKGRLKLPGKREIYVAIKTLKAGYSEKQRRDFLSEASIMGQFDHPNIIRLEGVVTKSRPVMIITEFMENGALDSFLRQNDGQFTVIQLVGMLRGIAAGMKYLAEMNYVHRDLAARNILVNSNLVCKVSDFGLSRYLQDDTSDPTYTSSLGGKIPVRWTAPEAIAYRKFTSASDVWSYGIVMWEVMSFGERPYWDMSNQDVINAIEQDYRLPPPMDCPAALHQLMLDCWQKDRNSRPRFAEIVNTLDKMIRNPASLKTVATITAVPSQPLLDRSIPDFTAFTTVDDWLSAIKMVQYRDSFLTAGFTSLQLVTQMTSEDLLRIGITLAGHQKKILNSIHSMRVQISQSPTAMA
Chain of Grb2 SH2 (P62993 whole entry, looked up): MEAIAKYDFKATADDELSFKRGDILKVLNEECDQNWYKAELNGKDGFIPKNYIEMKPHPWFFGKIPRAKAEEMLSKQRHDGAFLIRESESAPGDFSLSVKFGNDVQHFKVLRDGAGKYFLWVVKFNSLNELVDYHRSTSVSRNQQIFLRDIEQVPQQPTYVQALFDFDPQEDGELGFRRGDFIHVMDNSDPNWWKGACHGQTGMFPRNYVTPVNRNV
Chain of FGFR3 (P22607 whole entry, looked up): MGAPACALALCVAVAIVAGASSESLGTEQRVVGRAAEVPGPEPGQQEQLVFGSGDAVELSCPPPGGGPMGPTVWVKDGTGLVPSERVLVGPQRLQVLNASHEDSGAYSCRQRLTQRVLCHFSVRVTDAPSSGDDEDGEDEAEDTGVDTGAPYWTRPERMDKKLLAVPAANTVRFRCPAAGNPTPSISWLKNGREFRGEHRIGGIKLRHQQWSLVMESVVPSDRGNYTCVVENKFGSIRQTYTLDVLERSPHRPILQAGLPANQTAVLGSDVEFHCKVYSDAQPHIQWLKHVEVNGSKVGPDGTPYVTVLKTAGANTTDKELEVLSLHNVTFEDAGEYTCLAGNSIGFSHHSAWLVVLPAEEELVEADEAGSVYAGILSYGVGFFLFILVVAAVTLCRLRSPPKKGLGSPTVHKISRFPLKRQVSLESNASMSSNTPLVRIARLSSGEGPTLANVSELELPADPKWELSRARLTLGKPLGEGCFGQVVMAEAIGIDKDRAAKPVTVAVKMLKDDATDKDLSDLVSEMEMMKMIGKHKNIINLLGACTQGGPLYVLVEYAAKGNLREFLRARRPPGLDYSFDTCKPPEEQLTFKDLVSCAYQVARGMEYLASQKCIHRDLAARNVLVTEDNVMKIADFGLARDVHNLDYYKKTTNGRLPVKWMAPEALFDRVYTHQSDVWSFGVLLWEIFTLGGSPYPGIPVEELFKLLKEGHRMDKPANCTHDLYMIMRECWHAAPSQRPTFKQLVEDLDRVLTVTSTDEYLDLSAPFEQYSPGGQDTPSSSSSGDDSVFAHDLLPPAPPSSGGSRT
Chain of MERTK (Q12866 whole entry, looked up): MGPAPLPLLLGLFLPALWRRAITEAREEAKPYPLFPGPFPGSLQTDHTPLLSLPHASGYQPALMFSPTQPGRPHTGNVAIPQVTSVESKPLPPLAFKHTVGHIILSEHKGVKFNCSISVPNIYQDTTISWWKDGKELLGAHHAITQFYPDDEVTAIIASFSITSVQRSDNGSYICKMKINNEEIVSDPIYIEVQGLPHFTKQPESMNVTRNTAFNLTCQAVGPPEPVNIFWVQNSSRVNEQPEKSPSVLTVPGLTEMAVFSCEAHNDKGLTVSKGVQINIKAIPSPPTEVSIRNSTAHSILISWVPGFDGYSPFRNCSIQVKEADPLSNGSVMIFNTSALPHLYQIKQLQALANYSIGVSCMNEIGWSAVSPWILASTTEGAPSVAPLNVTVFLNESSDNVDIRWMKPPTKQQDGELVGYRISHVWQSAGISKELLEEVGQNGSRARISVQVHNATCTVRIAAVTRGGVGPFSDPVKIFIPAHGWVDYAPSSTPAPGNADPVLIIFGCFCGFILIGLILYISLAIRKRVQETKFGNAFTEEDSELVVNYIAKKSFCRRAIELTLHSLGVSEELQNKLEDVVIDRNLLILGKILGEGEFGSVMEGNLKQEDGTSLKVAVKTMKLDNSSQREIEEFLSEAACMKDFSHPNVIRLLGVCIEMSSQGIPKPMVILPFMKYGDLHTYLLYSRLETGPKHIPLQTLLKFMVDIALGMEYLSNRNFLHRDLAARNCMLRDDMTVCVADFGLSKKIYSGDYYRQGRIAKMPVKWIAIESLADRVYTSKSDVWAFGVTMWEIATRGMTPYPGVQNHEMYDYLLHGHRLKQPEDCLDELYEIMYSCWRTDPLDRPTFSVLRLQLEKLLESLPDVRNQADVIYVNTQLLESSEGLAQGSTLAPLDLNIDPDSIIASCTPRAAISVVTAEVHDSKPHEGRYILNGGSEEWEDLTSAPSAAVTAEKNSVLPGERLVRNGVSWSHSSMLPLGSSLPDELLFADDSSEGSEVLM
Chain of Hck (P08631 whole entry, looked up): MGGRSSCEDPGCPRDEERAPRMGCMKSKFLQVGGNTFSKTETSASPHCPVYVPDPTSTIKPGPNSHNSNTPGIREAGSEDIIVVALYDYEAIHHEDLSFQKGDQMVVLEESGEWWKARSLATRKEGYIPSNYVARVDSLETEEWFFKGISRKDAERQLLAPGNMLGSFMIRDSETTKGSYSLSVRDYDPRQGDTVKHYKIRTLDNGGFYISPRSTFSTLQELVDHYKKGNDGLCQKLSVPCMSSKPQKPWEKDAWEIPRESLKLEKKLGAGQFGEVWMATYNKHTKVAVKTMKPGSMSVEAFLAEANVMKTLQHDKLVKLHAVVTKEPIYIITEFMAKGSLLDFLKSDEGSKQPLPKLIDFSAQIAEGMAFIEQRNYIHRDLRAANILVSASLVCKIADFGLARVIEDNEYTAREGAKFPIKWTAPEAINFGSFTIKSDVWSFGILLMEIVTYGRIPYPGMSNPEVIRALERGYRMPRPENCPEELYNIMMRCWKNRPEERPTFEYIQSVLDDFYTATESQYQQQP
Chain of Fes (P07332 whole entry, looked up): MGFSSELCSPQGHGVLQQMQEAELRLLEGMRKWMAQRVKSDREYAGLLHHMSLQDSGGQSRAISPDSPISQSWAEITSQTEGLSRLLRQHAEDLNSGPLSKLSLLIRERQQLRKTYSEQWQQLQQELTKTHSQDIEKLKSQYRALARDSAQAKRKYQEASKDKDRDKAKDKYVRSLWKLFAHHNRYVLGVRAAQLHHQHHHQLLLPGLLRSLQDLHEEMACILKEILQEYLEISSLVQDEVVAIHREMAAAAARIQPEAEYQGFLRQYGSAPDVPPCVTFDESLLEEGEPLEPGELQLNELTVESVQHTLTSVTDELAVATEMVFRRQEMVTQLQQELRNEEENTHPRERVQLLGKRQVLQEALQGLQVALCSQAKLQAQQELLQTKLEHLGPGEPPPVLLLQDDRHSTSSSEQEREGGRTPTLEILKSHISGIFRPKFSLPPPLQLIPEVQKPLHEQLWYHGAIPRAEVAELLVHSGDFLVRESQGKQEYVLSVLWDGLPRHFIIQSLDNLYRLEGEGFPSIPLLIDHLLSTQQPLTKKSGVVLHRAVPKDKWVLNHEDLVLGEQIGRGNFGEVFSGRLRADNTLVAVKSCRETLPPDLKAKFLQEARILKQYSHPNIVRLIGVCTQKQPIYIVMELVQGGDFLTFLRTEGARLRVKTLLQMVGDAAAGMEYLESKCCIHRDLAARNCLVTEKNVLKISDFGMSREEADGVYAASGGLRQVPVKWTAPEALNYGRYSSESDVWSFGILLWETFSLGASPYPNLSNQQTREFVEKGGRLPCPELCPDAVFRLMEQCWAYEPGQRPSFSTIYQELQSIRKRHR

Sequence | phosphorylation enrichment [1] | phosphorylation enrichment [2] | phosphorylation enrichment [3] | phosphorylation enrichment [4] | phosphorylation enrichment [5] | phosphorylation enrichment [6] | phosphorylation enrichment [7] | phosphorylation enrichment [8] | phosphorylation enrichment [9] | phosphorylation enrichment [10] | phosphorylation enrichment [11] | phosphorylation enrichment [12] | phosphorylation enrichment [13] | SH2 binding enrichment [14] | SH2 binding enrichment [15] | SH2 binding enrichment [16]
RASQEYHIVKK [PDZD2_Y557_S552R] | 0.772 | 0.754 | 0.471 | 0.881 | 0.784 | 0.571 | 1.08 | 0.289 | 0.607 | 1.06 | 0.356 | 0.841 | 0.643 | 1.01 | 1.03 | 1.11
RAYRHYLLKQK [SCN2A_Y1919_R1918H] | 0.52 | 0.334 | 0.602 | 0.31 | 0.607 | 0.332 | 0.597 | 0.632 | 0.414 | 0.47 | 0.571 | 0.376 | 0.583 | 0.677 | 0.51 | 0.442
RDSQIYAVDFE [MRPS34_Y34_L33I_YF] | 1.66 | 1.08 | 1.17 | 0.664 | 0.656 | 0.717 | 1.22 | 6.32 | 2.83 | 1.15 | 5.64 | 0.959 | 7.72 | 0.88 | 0.806 | 0.688
RDSQLYAVDFE [MRPS34_Y34_YF] | 1.49 | 1.04 | 0.869 | 0.53 | 0.788 | 0.728 | 1.58 | 0.993 | 0.908 | 1.09 | 1.9 | 0.876 | 1.35 | 1.37 | 1.07 | 0.701
RDSQLYAVDYE [MRPS34_Y34] | 2.1 | 0.904 | 1.05 | 1.08 | 1.38 | 0.871 | 2.77 | 1.33 | 1.41 | 2.07 | 2.12 | 0.966 | 1.63 | 0.69 | 0.631 | 0.545
REAAAYPHGRL [AGXT_Y297_L298P] | 0.516 | 0.254 | 0.442 | 0.25 | 0.41 | 0.192 | 0.46 | 0.274 | 0.404 | 0.704 | 0.32 | 0.415 | 0.329 | 0.989 | 0.739 | 0.55
REEIKYMLWLS [OTC_Y55_G50R] | 1.23 | 0.697 | 0.992 | 0.961 | 1.4 | 0.955 | 1.58 | 0.661 | 0.786 | 1.15 | 0.734 | 0.944 | 0.474 | 0.642 | 0.775 | 0.502
REESTYLPLTS [ICAM3_Y527] | 1.62 | 0.88 | 0.894 | 1.19 | 1.51 | 1 | 1.75 | 1.35 | 3.17 | 1.41 | 0.803 | 0.674 | 2.39 | 0.961 | 0.811 | 0.787
RESSGYLRLAF [MEP1A_Y481] | 1.46 | 1.08 | 1.21 | 0.593 | 1.25 | 0.93 | 1.8 | 0.732 | 0.872 | 2.85 | 1.07 | 1.23 | 1.11 | 1.18 | 5.52 | 0.991
RETLTYAQAQR [BRD1_Y33] | 0.702 | 0.383 | 0.478 | 0.541 | 0.525 | 0.42 | 0.737 | 0.584 | 0.746 | 0.694 | 0.529 | 0.963 | 0.623 | 0.904 | 0.819 | 0.753
RFLERDIFNRE [HLA-DPB1_Y57_Y57D_YF] | 1.17 | 0.769 | 0.569 | 0.682 | 1.1 | 1.01 | 1.01 | 0.518 | 0.771 | 1.69 | 0.548 | 1.29 | 0.584 | 0.927 | 0.707 | 0.565
RFWPRYVKVGS [NOG_Y172] | 1.36 | 0.532 | 0.478 | 0.487 | 0.751 | 0.726 | 0.624 | 0.68 | 0.726 | 0.622 | 0.46 | 0.691 | 0.535 | 0.701 | 0.429 | 0.446
RGDCMYAPLLG [AR_Y269] | 0.898 | 7.23 | 8.4 | 3.08 | 1.83 | 4.16 | 0.885 | 8.2 | 10.9 | 0.743 | 10.4 | 5.89 | 5.61 | 0.98 | 0.739 | 1.04
RGDIFYTSKLW [AKR1C3_Y81_E77G] | 1.72 | 0.964 | 0.963 | 0.923 | 1.09 | 0.648 | 1.59 | 0.611 | 0.46 | 1.33 | 0.803 | 0.889 | 0.735 | 0.919 | 0.888 | 0.55
RGDVIYKGFED [NFU1_Y194_G189R] | 0.81 | 0.622 | 0.672 | 0.514 | 0.699 | 0.681 | 1.03 | 4.47 | 1.07 | 0.815 | 0.481 | 0.445 | 2.03 | 0.797 | 0.634 | 0.488
RGFDTYFGYLL [ARSB_Y165] | 2.15 | 5.14 | 8.25 | 3.58 | 3.3 | 3.59 | 1.63 | 8.58 | 7.09 | 5.83 | 4.01 | 1.56 | 6.46 | 1 | 1.42 | 0.417
RGKDSYETSQL [SPP1_Y225] | 0.681 | 0.552 | 0.529 | 0.632 | 0.697 | 0.594 | 0.913 | 0.484 | 0.412 | 0.643 | 0.5 | 0.313 | 0.449 | 0.698 | 0.381 | 0.482
RGLQVYHKRNA [LRP2_Y2010_R2012K] | 0.545 | 0.45 | 0.468 | 0.433 | 0.642 | 0.517 | 0.985 | 0.496 | 0.59 | 0.654 | 0.496 | 0.561 | 0.497 | 0.943 | 0.539 | 0.567
RIPFRYPKEFQ [IDS_Y234_H229R] | 0.946 | 0.571 | 0.646 | 0.78 | 1.07 | 0.627 | 1.14 | 0.56 | 1.07 | 1.48 | 0.637 | 0.998 | 1.1 | 0.447 | 0.531 | 0.414
RIVEIYSRSLQ [GCH1_Y175_R178S] | 1.43 | 1.03 | 0.985 | 0.753 | 1.67 | 0.87 | 1.95 | 1.52 | 2.61 | 0.895 | 1.17 | 1.07 | 1.28 | 0.944 | 0.701 | 0.485
RLDRSYSYSYS [PEAR1_Y890] | 0.655 | 0.443 | 0.434 | 0.594 | 0.42 | 0.467 | 0.597 | 0.334 | 0.5 | 0.374 | 0.569 | 0.359 | 0.42 | 0.782 | 1.12 | 1.41
RLYARYFQGDL [PDK3_Y337] | 1.24 | 0.705 | 0.664 | 0.684 | 0.923 | 0.543 | 1.26 | 0.6 | 0.511 | 1.57 | 0.711 | 1.18 | 0.763 | 0.889 | 0.556 | 0.549
RMETAYGPSVT [MXRA5_Y2717_E2716A] | 0.635 | 0.413 | 0.46 | 0.448 | 0.529 | 0.617 | 0.718 | 0.467 | 0.63 | 0.661 | 0.444 | 0.511 | 0.646 | 0.76 | 0.904 | 0.405
RMLRKYQELMS [KRT74_Y425_E424K] | 0.643 | 0.419 | 0.397 | 0.556 | 0.402 | 0.522 | 0.673 | 0.509 | 0.43 | 0.5 | 0.485 | 0.455 | 0.447 | 0.712 | 0.608 | 0.438
RNAAEYLLSSG [ABL1_Y139] | 0.765 | 0.38 | 0.345 | 0.456 | 0.446 | 0.596 | 0.723 | 0.35 | 0.48 | 0.667 | 0.294 | 0.353 | 0.34 | 0.998 | 0.595 | 0.566
RNDLDYMDSRR [GAA_Y407_W402R] | 0.809 | 0.426 | 0.408 | 0.512 | 0.645 | 0.341 | 0.81 | 0.455 | 0.509 | 0.798 | 0.528 | 0.779 | 0.555 | 0.971 | 0.552 | 0.422
RNFVRYVQGLK [VWF_Y1400] | 0.277 | 0.324 | 0.37 | 0.255 | 0.445 | 0.309 | 0.599 | 0.511 | 0.339 | 0.556 | 0.48 | 0.548 | 0.566 | 0.669 | 0.839 | 0.586
RNVLVYDKLNV [ROR2_Y624] | 0.933 | 1.97 | 1.97 | 0.614 | 0.787 | 3.9 | 0.64 | 5.08 | 13.9 | 0.632 | 3.88 | 2.12 | 3.99 | 1.06 | 0.535 | 0.908
RPLVVYPWTQR [HBB_Y36_L32P] | 0.728 | 1.11 | 0.695 | 0.473 | 0.45 | 0.358 | 0.748 | 0.468 | 0.407 | 0.445 | 0.389 | 0.509 | 0.446 | 0.809 | 0.718 | 0.623

Source: the supplement of paper PMC10065799, “High-throughput profiling of sequence recognition by tyrosine kinases and SH2 domains using bacterial peptide display” (eLife, 2023)
